Reference: publication PMC10491789

Molecular target: GPI-T (wild-type human GPI transamidase complex, purified by the same strategy as GPI-T^sub) (human) (UniProt O43292)
Assay: tandem affinity co-purification; co-expressed in HEK293T-derived knockout cells; solubilised with 1% LMNG/0.1% CHS, exchanged to digitonin; Strep-Tactin beads (Strep tag on PIGU) then Ni-NTA (His tag on (pro)ULBP2); 4 °C; 150 mM NaCl, Tris-HCl pH 8.0

- yield during the second affinity chromatography step: 4%
Substance: ULBP2 (His-tagged GPI-anchored product, co-expressed with wild-type GPI-T) (from UniProt Q9BZM5 27-217) (natural protein)
